Data published in the supplement of paper PMC12458215.
± gives the uncertainty stated by the source.

System: HEK293T
Assay: plasma membrane surface immunostaining intensity (anti-HA, deep receptor scanning) (arbitrary fluorescence units); higher = higher plasma membrane expression

MSGTKLEDSPPCRNWSSASELNETQEPFLNPTDYDDEEFLRYLWREYLHPKEYEWVLIAGYIIVFVVALIGNVLVCVAVWKNHHMRTVTNYFIVNLSLADVLVTITCLPATLVVDITETWFFGQSLCKVIPYLQTVSVSVSVLTLSCIALDRWYAICHPLMFKSTAKRARNSIVIIWIVSCIIMIPQAIVMECSTVFPGLANKTTLFTVCDERWGGEIYPKMYHICFFLVTYMAPLCLMVLAYLQIFRKLWCRQIPGTSSVVQRKWKPLQPVSQPRGPGQPTKSRMSAVAAEIKQIRARRKTARMLMIVLLVFAICYLPISILNVLKRVFGMFAHTEDRETVYAWFTFSHWLVYANSAANPIIYNFLSGKFREEFKAAFSCCCLGVHHRQEDRLTRGRTSTESRKSLTTQISNFDNISKLSEQVVLTSISTLPAANGAGPLQNW [HCRTR2]
plasma membrane surface immunostaining intensity (GPCR class: A): 5620 ± 490

MRAPGALLARMSRLLLLLLLKVSASSALGVAPASRNETCLGESCAPTVIQRRGRDAWGPGNSARDVLRARAPREEQGAAFLAGPSWDLPAAPGRDPAAGRGAEASAAGPPGPPTRPPGPWRWKGARGQEPSETLGRGNPTALQLFLQISEEEEKGPRGAGISGRSQEQSVKTVPGASDLFYWPRRAGKLQGSHHKPLSKTANGLAGHEGWTIALPGRALAQNGSLGEGIHEPGGPRRGNSTNRRVRLKNPFYPLTQESYGAYAVMCLSVVIFGTGIIGNLAVMCIVCHNYYMRSISNSLLANLAFWDFLIIFFCLPLVIFHELTKKWLLEDFSCKIVPYIEVASLGVTTFTLCALCIDRFRAATNVQMYYEMIENCSSTTAKLAVIWVGALLLALPEVVLRQLSKEDLGFSGRAPAERCIIKISPDLPDTIYVLALTYDSARLWWYFGCYFCLPTLFTITCSLVTARKIRKAEKACTRGNKRQIQLESQMNCTVVALTILYGFCIIPENICNIVTAYMATGVSQQTMDLLNIISQFLLFFKSCVTPVLLFCLCKPFSRAFMECCCCCCEECIQKSSTVTSDDNDNEYTTELELSPFSTIRREMSTFASVGTHC [GPR37]
plasma membrane surface immunostaining intensity (GPCR class: A): 158 ± 26

MNVSGCPGAGNASQAGGGGGWHPEAVIVPLLFALIFLVGTVGNTLVLAVLLRGGQAVSTTNLFILNLGVADLCFILCCVPFQATIYTLDGWVFGSLLCKAVHFLIFLTMHASSFTLAAVSLDRYLAIRYPLHSRELRTPRNALAAIGLIWGLSLLFSGPYLSYYRQSQLANLTVCHPAWSAPRRRAMDICTFVFSYLLPVLVLGLTYARTLRYLWRAVDPVAAGSGARRAKRKVTRMILIVAALFCLCWMPHHALILCVWFGQFPLTRATYALRILSHLVSYANSCVNPIVYALVSKHFRKGFRTICAGLLGRAPGRASGRVCAAARGTHSGSVLERESSDLLHMSEAAGALRPCPGASQPCILEPCPGPSWQGPKAGDSILTVDVA [GALR2]
plasma membrane surface immunostaining intensity (GPCR class: A): 2060 ± 420

MEAENLTELSKFLLLGLSDDPELQPVLFGLFLSMYLVTVLGNLLIILAVSSDSHLHTPMYFFLSNLSFVDICFISTTVPKMLVSIQARSKDISYMGCLTQVYFLMMFAGMDTFLLAVMAYDRFVAICHPLHYTVIMNPCLCGLLVLASWFIIFWFSLVHILLMKRLTFSTGTEIPHFFCEPAQVLKVACSNTLLNNIVLYVATALLGVFPVAGILFSYSQIVSSLMGMSSTKGKYKAFSTCGSHLCVVSLFYGTGLGVYLSSAVTHSSQSSSTASVMYAMVTPMLNPFIYSLRNKDVKGALERLLSRADSCP [OR7D4]
plasma membrane surface immunostaining intensity (GPCR class: A (Olfactory)): 157 ± 48

MRGFNLLLFWGCCVMHSWEGHIRPTRKPNTKGNNCRDSTLCPAYATCTNTVDSYYCACKQGFLSSNGQNHFKDPGVRCKDIDECSQSPQPCGPNSSCKNLSGRYKCSCLDGFSSPTGNDWVPGKPGNFSCTDINECLTSSVCPEHSDCVNSMGSYSCSCQVGFISRNSTCEDVDECADPRACPEHATCNNTVGNYSCFCNPGFESSSGHLSFQGLKASCEDIDECTEMCPINSTCTNTPGSYFCTCHPGFAPSNGQLNFTDQGVECRDIDECRQDPSTCGPNSICTNALGSYSCGCIAGFHPNPEGSQKDGNFSCQRVLFKCKEDVIPDNKQIQQCQEGTAVKPAYVSFCAQINNIFSVLDKVCENKTTVVSLKNTTESFVPVLKQISTWTKFTKEETSSLATVFLESVESMTLASFWKPSANITPAVRTEYLDIESKVINKECSEENVTLDLVAKGDKMKIGCSTIEESESTETTGVAFVSFVGMESVLNERFFKDHQAPLTTSEIKLKMNSRVVGGIMTGEKKDGFSDPIIYTLENIQPKQKFERPICVSWSTDVKGGRWTSFGCVILEASETYTICSCNQMANLAVIMASGELTMDFSLYIISHVGIIISLVCLVLAIATFLLCRSIRNHNTYLHLHLCVCLLLAKTLFLAGIHKTDNKMGCAIIAGFLHYLFLACFFWMLVEAVILFLMVRNLKVVNYFSSRNIKMLHICAFGYGLPMLVVVISASVQPQGYGMHNRCWLNTETGFIWSFLGPVCTVIVINSLLLTWTLWILRQRLSSVNAEVSTLKDTRLLTFKAFAQLFILGCSWVLGIFQIGPVAGVMAYLFTIINSLQGAFIFLIHCLLNGQVREEYKRWITGKTKPSSQSQTSRILLSSMPSASKTG [ADGRE1]
plasma membrane surface immunostaining intensity (GPCR class: B): 948 ± 160

MSASNITLTHPTAFLLVGIPGLEHLHIWISIPFCLAYTLALLGNCTLLLIIQADAALHEPMYLFLAMLAAIDLVLSSSALPKMLAIFWFRDREINFFACLAQMFFLHSFSIMESAVLLAMAFDRYVAICKPLHYTKVLTGSLITKIGMAAVARAVTLMTPLPFLLRCFHYCRGPVIAHCYCEHMAVVRLACGDTSFNNIYGIAVAMFIVVLDLLLVILSYIFILQAVLLLASQEARYKAFGTCVSHIGAILAFYTTVVISSVMHRVARHAAPHVHILLANFYLLFPPMVNPIIYGVKTKQIRESILGVFPRKDM [OR52K2]
plasma membrane surface immunostaining intensity (GPCR class: A (Olfactory)): 441 ± 130

MESSGNPESTTFFYYDLQSQPCENQAWVFATLATTVLYCLVFLLSLVGNSLVLWVLVKYESLESLTNIFILNLCLSDLVFACLLPVWISPYHWGWVLGDFLCKLLNMIFSISLYSSIFFLTIMTIHRYLSVVSPLSTLRVPTLRCRVLVTMAVWVASILSSILDTIFHKVLSSGCDYSELTWYLTSVYQHNLFFLLSLGIILFCYVEILRTLFRSRSKRRHRTVKLIFAIVVAYFLSWGPYNFTLFLQTLFRTQIIRSCEAKQQLEYALLICRNLAFSHCCFNPVLYVFVGVKFRTHLKHVLRQFWFCRLQAPSPASIPHSPGAFAYEGASFY [XCR1]
plasma membrane surface immunostaining intensity (GPCR class: A): 190 ± 16

MSGDNSSSLTPGFFILNGVPGLEATHIWISLPFCFMYIIAVVGNCGLICLISHEEALHRPMYYFLALLSFTDVTLCTTMVPNMLCIFWFNLKEIDFNACLAQMFFVHMLTGMESGVLMLMALDRYVAICYPLRYATILTNPVIAKAGLATFLRNVMLIIPFTLLTKRLPYCRGNFIPHTYCDHMSVAKVSCGNFKVNAIYGLMVALLIGVFDICCISVSYTMILQAVMSLSSADARHKAFSTCTSHMCSIVITYVAAFFTFFTHRFVGHNIPNHIHIIVANLYLLLPPTMNPIVYGVKTKQIQEGVIKFLLGDKVSFTYDK [OR52N2]
plasma membrane surface immunostaining intensity (GPCR class: A (Olfactory)): 157 ± 54

MEPEINCSELCDSFPGQELDRRPLHDLCKTTITSSHHSSKTISSLSPVLLGIVWTFLSCGLLLILFFLAFTIHCRKNRIVKMSSPNLNIVTLLGSCLTYSSAYLFGIQDVLVGSSMETLIQTRLSMLCIGTSLVFGPILGKSWRLYKVFTQRVPDKRVIIKDLQLLGLVAALLMADVILLMTWVLTDPIQCLQILSVSMTVTGKDVSCTSTSTHFCASRYSDVWIALIWGCKGLLLLYGAYLAGLTGHVSSPPVNQSLTIMVGVNLLVLAAGLLFVVTRYLHSWPNLVFGLTSGGIFVCTTTINCFIFIPQLKQWKAFEEENQTIRRMAKYFSTPNKSFHTQYGEEENCHPRGEKSSMERLLTEKNAVIESLQEQVNNAKEKIVRLMSAECTYDLPEGAAPPASSPNKDVQAVASVHTLAAAQGPSGHLSDFQNDPGMAARDSQCTSGPSSYAQSLEGPGKDSSFSPGKEEKISDSKDFSDHLDSGCSQKPWTEQSLGPERGDQVPMNPSQSLLPERGGSDPQRQRHLENSEEPPERRSRVSSVIREKLQEVLQDLGLGPEASLSTAPSCHQQTWKNSAAFSPQKMPLSKELGFSPYMVRRRRAAQRARSHFPGSAPSSVGHRANRTVPGAHSRLHVQNGDSPSLAPQTTDSRVRRPSSRKPSLPSDPQDRPGTLEGSKQSQTEPEGARGSKAAFLRQPSGSGRAPSPAAPCLSKASPDLPEQWQLWPPVPSGCASLSSQHSYFDTESSSSDEFFCRCHRPYCEICFQSSSDSSDSGTSDTDPEPTGGLASWEKLWARSKPIVNFKDDLKPTLV [GPR156]
plasma membrane surface immunostaining intensity (GPCR class: C): 352 ± 30

MEPAPSAGAELQPPLFANASDAYPSACPSAGANASGPPGARSASSLALAIAITALYSAVCAVGLLGNVLVMFGIVRYTKMKTATNIYIFNLALADALATSTLPFQSAKYLMETWPFGELLCKAVLSIDYYNMFTSIFTLTMMSVDRYIAVCHPVKALDFRTPAKAKLINICIWVLASGVGVPIMVMAVTRPRDGAVVCMLQFPSPSWYWDTVTKICVFLFAFVVPILIITVCYGLMLLRLRSVRLLSGSKEKDRSLRRITRMVLVVVGAFVVCWAPIHIFVIVWTLVDIDRRDPLVVAALHLCIALGYANSSLNPVLYAFLDENFKRCFRQLCRKPCGRPDPSSFSRAREATARERVTACTPSDGPGGGAAA [OPRD1]
plasma membrane surface immunostaining intensity (GPCR class: A): 6220 ± 99

MCPMLLKNGYNGNATPVTTTAPWASLGLSAKTCNNVSFEESRIVLVVVYSAVCTLGVPANCLTAWLALLQVLQGNVLAVYLLCLALCELLYTGTLPLWVIYIRNQHRWTLGLLACKVTAYIFFCNIYVSILFLCCISCDRFVAVVYALESRGRRRRRTAILISACIFILVGIVHYPVFQTEDKETCFDMLQMDSRIAGYYYARFTVGFAIPLSIIAFTNHRIFRSIKQSMGLSAAQKAKVKHSAIAVVVIFLVCFAPYHLVLLVKAAAFSYYRGDRNAMCGLEERLYTASVVFLCLSTVNGVADPIIYVLATDHSRQEVSRIHKGWKEWSMKTDVTRLTHSRDTEELQSPVALADHYTFSRPVHPPGSPCPAKRLIEESC [GPR132]
plasma membrane surface immunostaining intensity (GPCR class: A): 372 ± 74

MDGSNVTSFVVEEPTNISTGRNASVGNAHRQIPIVHWVIMSISPVGFVENGILLWFLCFRMRRNPFTVYITHLSIADISLLFCIFILSIDYALDYELSSGHYYTIVTLSVTFLFGYNTGLYLLTAISVERCLSVLYPIWYRCHRPKYQSALVCALLWALSCLVTTMEYVMCIDREEESHSRNDCRAVIIFIAILSFLVFTPLMLVSSTILVVKIRKNTWASHSSKLYIVIMVTIIIFLIFAMPMRLLYLLYYEYWSTFGNLHHISLLFSTINSSANPFIYFFVGSSKKKRFKESLKVVLTRAFKDEMQPRRQKDNCNTVTVETVV [MAS1]
plasma membrane surface immunostaining intensity (GPCR class: A): 782 ± 65

MSITKAWNSSSVTMFILLGFTDHPELQALLFVTFLGIYLTTLAWNLALIFLIRGDTHLHTPMYFFLSNLSFIDICYSSAVAPNMLTDFFWEQKTISFVGCAAQFFFFVGMGLSECLLLTAMAYDRYAAISSPLLYPTIMTQGLCTRMVVGAYVGGFLSSLIQASSIFRLHFCGPNIINHFFCDLPPVLALSCSDTFLSQVVNFLVVVTVGGTSFLQLLISYGYIVSAVLKIPSAEGRWKACNTCASHLMVVTLLFGTALFVYLRPSSSYLLGRDKVVSVFYSLVIPMLNPLIYSLRNKEIKDALWKVLERKKVFS [OR5A1]
plasma membrane surface immunostaining intensity (GPCR class: A (Olfactory)): 122 ± 20

MNEDLKVNLSGLPRDYLDAAAAENISAAVSSRVPAVEPEPELVVNPWDIVLCTSGTLISCENAIVVLIIFHNPSLRAPMFLLIGSLALADLLAGIGLITNFVFAYLLQSEATKLVTIGLIVASFSASVCSLLAITVDRYLSLYYALTYHSERTVTFTYVMLVMLWGTSICLGLLPVMGWNCLRDESTCSVVRPLTKNNAAILSVSFLFMFALMLQLYIQICKIVMRHAHQIALQHHFLATSHYVTTRKGVSTLAIILGTFAACWMPFTLYSLIADYTYPSIYTYATLLPATYNSIINPVIYAFRNQEIQKALCLICCGCIPSSLAQRARSPSDV [GPR12]
plasma membrane surface immunostaining intensity (GPCR class: A): 1260 ± 200
